Where two headings read alike, the source gives them in different places.
Key:
[1] = middle aged humans of around 40 years of age; cited from earlier work
human claudin-1 = target: T1, human claudin-1 (Homo sapiens, UniProt O95832); assay: Microscale thermophoresis (MST) binding
T1 construct: made in house
T1 sequence (O95832 1-211): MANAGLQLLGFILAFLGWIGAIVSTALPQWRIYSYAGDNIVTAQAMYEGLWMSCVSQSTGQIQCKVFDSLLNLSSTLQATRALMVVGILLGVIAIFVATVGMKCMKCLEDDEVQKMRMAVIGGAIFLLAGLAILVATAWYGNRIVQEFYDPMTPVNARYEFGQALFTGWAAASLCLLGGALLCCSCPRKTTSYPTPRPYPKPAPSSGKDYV
Protocol: Human claudin-1 was expressed and purified as reported previously (Vecchio & Stroud, 2019, PNAS USA, 116:17817-24). MST measurements were performed using a Monolith instrument (NanoTemper Technologies). For experiments with human claudin-1, the assay buffer contained 10 mM Tris HCl, pH 8.0, 100 mM NaCl, 4% glycerol, and 0.04% n-Dodecyl-β-D-Maltopyranoside (β-DDM). NPs and peptides were labeled with AF647 prior to MST analysis as described above. For the binding experiments, the concentration of human claudin-1 was varied from 2.2-73,500 nM and the AF647-labeled C1C2-NP was fixed at 70 nM, while the AF647 labeled NPs and AF647 labeled C1C2 peptide were fixed at 1 and 0.3 μM, respectively. Binding of the AF647 labeled C1C2-NP to human claudin-3, -4, and -9 were tested using 0.4-14000 nM, 0.8-28000 nM, and 0.6-20000 nM, respectively; with the AF647 labeled C1C2-NP fixed at 70 nM. This assay buffer was similar, except β-DDM was replaced with 0.1% n-Undecyl-β-D-Maltopyranoside (beta-UDM). In order to check non-specific binding of β-DDM micelles to the AF647 labeled C1C2-NP, the concentration of beta-DDM was varied from 0.03-900 μM and the concentration of the AF647-labeled C1C2-NP was fixed at 1 μM. A similar experiment was performed wherein the concentration of beta-UDM was varied from 0.3-10,000 μM and the concentration of AF647-labeled control NP was fixed at 1 μM. The non-specific binding of human claudins 4 and 9 to the NP was examined by varying the concentrations of human claudins 4 and 9 from 0.7-20,100 nM and 0.8-31,100 nM, respectively. The human claudin sub-dilutions were mixed with the NPs or peptides and loaded in standard monolith NT.115 capillary tubes for measurement. All experiments were conducted at 23° C. using the nano-red channel of the Monolith instrument and the data were analyzed by using either Monolith analysis software or Graph Pad Prism, version 9 (Graph Pad Software, San Diego, California).

Binding to human claudin-1 (in words) (human claudin-1)	Binding to human claudin-1 (in words) (human claudin-1; listed as C1C2 peptides)	Compound	K^trans, hippocampus [1] [min⁻¹]
–	–	CNC[C@H](O)[C@@H](O)[C@H](O)[C@H](O)CO.CNC[C@H](O)[C@@H](O)[C@H](O)[C@H](O)CO.O=C([O-])CN(CCN(CC(=O)[O-])CC(=O)O)CCN(CC(=O)O)C(COCc1ccccc1)C(=O)[O-].[Gd+3] (stereo not drawn) [MultiHance]	~0.001
little binding	no binding	C1C2 peptide: Peptide SSVSQSTGQIQSKVDSLLNLNSTQATR (SEQ ID NO: 6) purchased from Genscript; binds first extracellular loop of claudin-1 (Ac-SSVSQSTGQIQSKVDSLLNLNSTQATR-NH2)	–

— patent US20240350646A1, “METHODS AND COMPOSITIONS FOR DELIVERY TO AND ACROSS THE BLOOD BRAIN BARRIER” (NUtech Ventures, priority 2021, published 2024)
